Data reported in the supplement of paper PMC9170038.

System: MS2 coat protein
Assay: apparent KD of MS2 coat protein; higher = weaker reporter binding
Details: Eterna round: R107
Outline: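 Apparent KD per design is the median of normalised cluster binding-curve fits. Designed RNA switches transcribed on-chip from Illumina sequencing clusters were titrated with SNAP-549-labelled MS2 coat protein in twofold steps from 0.7 or 1.5 nM to 3 µM, with 0.8–1.5 h down to 10–20 min per step. Buffer: 100 mM Tris-HCl pH 7.5, 80 mM KCl, 4 mM MgCl2, without or with constant ligand.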

[1] = input ligand: theophylline 20 uM
[2] = input ligand: theophylline 2 mM
[3] = input ligand: tryptophan 2.4 mM

Sequence	apparent KD of MS2 coat protein (input ligand: arginine 13.2 mM) [nM]	apparent KD of MS2 coat protein (input ligand: none) [nM]	apparent KD of MS2 coat protein [1] [nM]	apparent KD of MS2 coat protein [2] [nM]	apparent KD of MS2 coat protein [3] [nM]
CGUCGAAACUGAAGGAGCGAGAUAACAACAUUGGGUCUCAACAUGAGGAUCACCCAUGUAUCUCAGGUAGGUCGCGGUGUCACCG [Exclusion Arginine B GF19]	176	202	267	429	217
CUACAUUUGUAGAAACCGGUCACCAUUAUUCGAGGACCGGUACGGCCGCCACUCGUAUCAUGUGAUACAUGAGGAUCACCCAUGU [Tryptophan A 9]	27.3	–	33.7	45.5	–
CGGUUUGUGAUGGAUACCAGCAGAGUGGCUGUUUAUCCUGACAUGAGGAUCACCCAUGUGUGCCCUUGGCAGCUGUUGUGGGCUG [8.aB]	85.8	86.8	137	108	74.4
GGGUACAUCGCGGCCGCCACUCAUGUAAAUACCUGAGGAUCACCCUGGUCGAUGGAGACAUCGAAGAGGACCGGGUGAUGUACCG	91.2	252	371	528	44.6
UAUGAGCGCACGGCCGCCACUGUCUUCAUCUGUUUGUCUACAUGAGGAUCACCCAUGUUGGUUUACAGGACCGGGUGCAACUAUG [SSTryp B #10]	26.9	–	38.1	33.8	–
UGUAUGUGAUCUGAUACCAGUCCAACUGGUAAAACCUGAGGAUCACCCUGGUAAAAUUGGGACCCUUGGCAGCAGAUCGCAUACU	222	350	674	125	560
UGUAUGGACUGAAGGAGCGCCUCAAAAUAGCUUGAGGAUCACCCAAGUAAGGCGAAAGCCGGGCAGGUAGGUCGCAGUCCAUACU [ArgBX 3]	12.3	14.3	16.6	15.2	14.8
UUUAGUAUCUUAGAUACCAGUUUUGGGUGCUGAACGUCUCACAUGAGGAUCACCCAUGUAAACCCUUGGCAGCUACAUACGUAAA [theeternabot_exclusion_MS2_Theo_B_41]	35.7	–	58.9	–	51.9
AACGUAUACAGAAGGAGCGUGAAAUAAGUAAAUUAAUAAUAAACAUGAGGAUCACCCAUGUCACAGGUAGGUCGCUGUAUUCGUA [JR_ExcArginiB_Sub017]	15.5	21.5	23.6	21.5	18.4
GGGACUAGAUCGGCCGCCACUGAUGGGACAUGAGGAUCACCCAUGUACGAAGUGAUCCAAUAAAUCAGGACCGGGAUCACUUGUA [Tryp B Ex t6]	64.3	–	137	173	–
GGGCCUGUAAGCAGACCCACAGCGGGUGAUACCAGCAAUAAAACUUGCCCUUGGCAGCACACAGCUACAUGAGGAUCACCCAUGU [Rausis]	36.4	–	92.9	–	82.4
AUAAGUAAGUUUUCGUGUUUUAUUACAGAUACCAGACUAUACGUUGUCCCUUGGCAGCUGGAUUACAUGAGGAUCACCCAUGUUG [#25 Exclusion-TheophyllineA]	19	–	33.9	–	23.9
UGUAUGGACUGAAGGAGCGGGAAAUAAACCUGAGGAACACCCAGGUAAUAGGCGAAAGCCACCCAGGUAGGUCGCAGUCCAUACU	17.2	13.6	14.8	14.4	18.8
AUCAUAAUAGCCUCGUGUAAUUAAAUGGAACGAGGACCGGUACGGCCGCCACUCGAUAUAAACAUGAGGAUCACCCAUGUAAGCA [JR_ExcTryptoA_Sub004]	30.5	–	44.1	58.2	–
CAUAUAUAAGCGGCCGCCACUUACUCAUGAGGUAACAACAUGAGGAUCACCCAUGUUUGAGGAUCAAGGACCGGGCUUAUAUAUG [AstrosSSTryB#5]	27	–	27.3	28.5	–
ACAUGUUGGUGGUACCAACGAAGGCGGAAACGAGGACCGGUACGGCCGCCACUCGGCGACAUGAGGAUCACCCAUGUGGUUAAAA [Exclusion - Tryptophan A (Freestyle 3)]	–	398	134	95.7	70
GAGCUGAUGUAGAGCUAAUAUAAGAGAGAUACCAGUACAGAAAUGUACCCUUGGCAGCUCAACUUUACAUGAGGAUCACCCAUGU [Ex Theophylline A 21]	12.2	–	13.4	–	16
UGACAUUGCUCAGAUACCAGACAUGAGCAUCAGCCAUGUGCCAACAAGUACAAAAUAAAUGUCCCUUGGCAGCUGAGCAAUGUCU [TheoBX 23 #MS2Left #AlternativeMS2 #Theo22]	14.1	10.9	16	153	12.3
GGUUGGUGUAGAGAUAUAUUGAUUACUGAAGGAGCGGGAAUAAACCCAGGUAGGUCGCAGAGAUCCACAUGAGGAUCACCCAUGU [!0.O]	32	36.9	54.6	53	35.3

Sequence	apparent KD of MS2 coat protein (input ligand: arginine 13.2 mM) [nM]	apparent KD of MS2 coat protein (input ligand: none) [nM]	apparent KD of MS2 coat protein [1] [nM]	apparent KD of MS2 coat protein [2] [nM]	apparent KD of MS2 coat protein [3] [nM]
UGAGAACAUGUCUUUAAGUUUACCUCUGAUACCAGAUUGAAAGGCAUCCCUUGGCAGCAGCAUACAUGAGGAUCACCCAUGUCCU [theeternabot_exclusion_MS2_Theo_A_12]	64.4	–	119	–	88.9
CGAAUAUAGACGGCCGCCACUCUACAAACAUGAGGAUCACCCAUGUUCACAUAGAGGAAACUCAUGAGGACCGGGUCAUAGGCUU [#20 Same State - Tryptophan B]	23.5	–	32.5	27.4	–
GGUGGAGGCGUGGGACUUGUCUGAACGGAUACCAGCCACAUCACGGGCCCUUGGCAGCUGUACAUGAGGAUCACCCAUGUCGGUC [Atestevete]	33.6	–	45.2	–	34.8
UAAUGCAUGACGGCCGCCACUAGAACAUGAGGAUCACCCAUGUACGGCGGCCGUCAUGGGUGGACUAGGACCGGGUCAUGCAUAU [(Trp1)-(Ms2)-(T)'-(M)'-(Trp2)_Design5]	8.2	–	11.6	10.5	–
UGACAUUGCUCAGAUACCAGACAUGAGGAUCACCCAUGUGCCAAAUAAACGUACAUAAAUGUCCCUUGGCAGCUGAGCAAUGUCU [TheoBX 11 #MS2Left #Theo2]	46.8	–	87.5	–	59.1
GGACUAACUCGAAGGAGCGACACGCAGAAACUGCAAUUUCCUCCACACGAGGAUCACCCGUGUCAGGUAGGUCGCGAGUUAGUCG [ArgBX 29]	20.8	21.8	26.3	28	19.8
UUGAACAUGAGGAUCACCCAUGUGGAUGAUACCAGCUAAAACAUAAGCCCUUGGCAGCAUUAAAAUGAAAUAUCGAAAAGGAAAG [theeternabot_sameState_MS2_Theo_A_1]	95.1	–	179	–	127
GAUAUGGAAACAUGUCAGAUCCUUACCGGUCGAGGACCGGUACGGCCGCCACUCGAAAAUAAUAAACAUGAGGAUCACCCAUGUA [Ex Tryptophan A 16]	17	–	18.8	17.5	–
UACCGAUGAAGAAGGAGCGAUUUUAUGUUACAUGAGGAUCACCCAUGUGGACUAGGUGAAGAUCAGGUAGGUCGCUUCAUCGGUA [SSAB NP+V+V2 #20]	19.8	20.3	31.9	22	24.5
UGACAUUGCUGCGAUACCAGACAUGAGGAUCACCCAUGUACCAAGAAAACGUACAUAAAUGUCCCUUGGCAGCGCAGCAAUGUCU [MAT - Exclusion Theophlline B - Mod of Eli - D25]	170	–	593	–	806
UGUAUGUGAUCUGAUACCAGCUAAUAAGCUUGAGGAUCACCCAAGUGGAGCGGAAACGCAAGCCCUUGGCAGCAGAUCGCAUACU [Denovo 4 #StaticStem #AlternativeMS2]	60.9	89.3	50.6	12.7	98.9
AUGCCUAGUGGAAGGAGCGAGGGUCUUCCCAACAUGAGGAUCACCCAUGUUCUUUUACACCCUCAGGUAGGUCGCCAUUGGGACA [Tilexete]	41.7	64.6	107	47.6	82.8
UCGCUCUGGGUGGGAUCCGGAGAUGUGGAAGGAGCGCUGGUAACAGCAGGUAGGUCGCCAACGGACAUGAGGAUCACCCAUGUAC [Same State - Arginine A (Freestyle 17)]	25.2	37.3	40	44.2	26.7
GCCGCGGCCGCGAUACACAUGGGUGUGUAACGAGGACCGGUACGGCCGCCACUCGAGAUGAUGUACAUGAGGAUCACCCAUGUAC [Exclusion Tryp A GF13]	11.8	11.6	15.4	11.9	13.9
AGAGCAUUGACGGCCGCCACUCAUGUCACAUGAGGAUCACCCAUGUGAUGGGUAAUCGCCCGGUUGAGGACCGGGUCAAUGCUCA [Omei Tryp SS B v3]	6.69	6.99	16.9	8.46	10.7
GUGUCCUAGUCGGCCGCCACUGGUACGAAUACCUUCACCCGUGUGCACAUGAGGAUCACCCAUGUCAGGACCGGGACUAGGGUGU [SSTryp B #24]	9.87	10	11.4	14.1	9.72
AAAUGUACGUCGGCCGCCACUGCGCUGAAGACAGUCACAUGAGGAUCACCCAUGUACGACAAGGGUAGGACCGGGAUGUGAGGGU [Rate]	45.1	–	130	217	–
AAUUUGUCGGGUGAUACCAGCCUCGGCGCAUCUCGCGCUGAACAUGAGGAUCACCCAUGUGGCCCUUGGCAGCACAUGACAAAUC [Veerdira]	153	–	587	–	757
AAUAACAUGAGGAUCACCCAUGUAAAAGAUACCAGGGUGAUGAUCCUCCCUUGGCAGCUUACAGCUGAUCAAUAAGAUCGGCUGA [TheoAS #Tail #MS2BeforeAptamer #BothOrNeither]	87.5	–	256	–	184
